Experimental data: publication PMC6695792 (Molecules, 2019)
No end group written: not given here.

Target: hPD-L1 of the Cis-Bio HTRF assay kit (human, UniProt Q9NZQ7 19-238)
Test: AlphaScreen or HTRF; Cis-Bio kit, 5 nM hPD-L1 and 50 nM hPD-1, 20 µL, dilution series of the inhibitor up to 5 mM, 2 h at room temperature, duplicates, normalized Hill fit
Conditions: both partners purified

B1: AUNP-12 peptide (peptide)
chain 1: SNTSESFKFRVTQLAPKAQIKE
chain 2: SNTSESF
modifications: also: bond at chain A 8 at chain B 7 to a chain's C-terminus via isopeptide
IC50: > 10 mM
